In one test the target is T1, human α-thrombin (Homo sapiens, UniProt P00734).
T1 construct: in complex with human α-thrombin
The test is described as follows: 15N CPMG NMR relaxation dispersion of peptide ligand with human thrombin, fitting of koff. It is filed as binding. Conditions: 288 K, two-site exchange.

Test [1] concerns the target T2, human prothrombin (Homo sapiens, UniProt P00734). The test can be described thus: 15N CPMG NMR relaxation dispersion of peptide ligand with human prothrombin, fitting of koff. The format is binding.
Description: Dried powder of the purified peptide was weighed using a Sartorius Supermicro S4™ balance and dissolved at ˜1.5 mM in an aqueous solution (10% D2O) that was 50 mM in NaCl and 50 mM in sodium phosphate at pH 5.5. Carefully measured volume aliquots of human prothrombin at a stock concentration of 0.3 mM were added to the peptide solution to produce molar ratios of ˜1:45, ˜1:35, and ˜1:30 for the prothrombin and peptide concentrations, respectively.
The core of the NMR relaxation dispersion measurements is the relaxation-compensated CPMG pulse scheme (FIG. 1) (Millet, O., Loria, J. P., Kroenke, C. D., Pons, M., and Palmer, A. G. (2000) J.Am.Chem.Soc. 122, 2867-2877; and Loria, J. P., Rance, M., and Palmer, A. G. (1999) J.Am.Chem.Soc. 121, 2331-2332). A train of ^15N 180° pulses with a separation of 1 ms is applied at 100 ppm off the center of the HSQC spectrum at the beginning of the recycle delay d1 such that the total number of ^15N 180° pulses, 4N, is kept the same for all experiments with different CPMG pulse repetition rates. An XY-16 180° pulse train (Gullion, T., Baker, D. B., and Conradi, M. S. (1990) J.Magn.Reson. 89, 479-484) is also applied to both the ^1H and ^15N nuclei during the two INEPT periods, which limits the decay of exchange-broadened ligand resonances. Further enhancement in sensitivity was achieved by using the 3919 WATERGATE sequence for water suppression (Piotto, M., Saudek, V., and Sklenar, V. (1992) J.Biomol.NMR 2, 661-665). The 90° and 180° RF pulses are represented by narrow and wide bars, respectively, applied along the +X axis unless specified otherwise. The open rectangles are water-selective soft pulses with duration of 2 ms. During data acquisition, ^15N decoupling is achieved using a GARP sequence (Shaka, A. J., Barker, P. B., and Freeman, R. (1985) J.Magn.Reson. 64, 547-552) with an RF field of 1.0 kHz (at 500 MHz) or 1.2 kHz (at 800 MHz). The delays are: Δ=2.7 ms, τ=1 ms, d2=d1-4(N-n)τ and τCPMG=(T/4n−pw180N), where T is the total duration of the ^15N CPMG pulse train and pw^180N is the width of the ^15N 180° pulse. Sinebell-shaped gradient pulses with a duration of 1 ms are used with gradient strengths of g1=5 G/cm, g2=6 G/cm, g3=1.2 G/cm, g4=6 G/cm, and g5=10 G/cm. The phases of some RF pulses are the same as those reported previously with φ1=+X−X, φ2=4(+X) 4(−X) and φ3=2(+X) 2(+Y) 2(−X) 2(−Y) (Millet, O., Loria, J. P., Kroenke, C. D., Pons, M., and Palmer, A. G. (2000) J.Am. Chem. Soc. 122, 2867-2877), except that the phases for the last ^15N 90° pulse, the WATERGATE sequence and the RF receiver are cycled as φ4=4(+X) 4(−X), φ5=8(+X) 8(+Y), φ6=8(−X) 8(−Y) and receiver=(+X−X−X+X) 2(−X+X+X−X) (+X−X−X+X). Phase-sensitive ^1H—^15N HSQC spectra were obtained by incrementing φ4, according to the States-TPPI scheme (Marion, D., Ikura, M., Tschudin, R., and Bax, A. (1989) J.Magn.Reson. 85, 393-). […] NMR data were collected at ^15N frequencies of 50.684 and 81.076 MHz using Bruker Avance/DRX 500 and 800 MHz NMR spectrometers. The total length of the ^15N CPMG pulse train, T (FIG. 1), is kept at a constant value of 40 ms and the total number (4N) of the ^15N CPMG 1800 pulses was set to 100.
For the specific application herein, values for koff, kon′, koff^1, koff^2, kon^−1, k1, k2, R2b(500 MHz), R2b(800 MHz), δωb, δωb1 and δωb2 (FIG. 2) were fitted as independent variables. Values kon^−2, pb, pb1, pb2, and pf=(1−pb1−pb2), with p standing for the population of the corresponding species, were derived using the condition of microscopic reversibility kijpi=kjipj, where kij denotes the exchange rate constant for the transformation of species i into species j.
The target of test [2] is T2, human prothrombin. As to conditions: binding with human prothrombin; previous reports; cited from earlier work.
Test [3] addresses T3, thrombin (Homo sapiens, UniProt P00734). As to conditions: cited from earlier work.
In test [4] the target is T3, thrombin. The test is described as follows: Inhibition of human thrombin. The format is biochemical. As to conditions: bivalent inhibitor of human thrombin.
Test [5] deals with T3, thrombin. The test can be described thus: Proteolytic cleavage of FD22 by active thrombin. It is filed as biochemical. Also on record: in complex with human α-thrombin. As to conditions: peptide ~0.9 mM, 50 mM sodium phosphate, 0.2 mM EDTA, pH 5.5, active thrombin added. Here is the method:
Titration of the thrombin-cleaved FD22 peptide was carried out as follows. The sample of FD22 was concentrated by Speed-Vac to 40 μl and 180 μl of a concentrated thrombin solution were added to give a final thrombin:peptide ratio of approximately 1:20 in 60 mM sodium phosphate buffer, 0.2 mM EDTA, 10% D2O, at pH 5.5. Additional steps of thrombin titrations were carried out by the addition of the human […]-thrombin concentrated to ˜8 mg/ml.
FD22 has the sequence of Phe-Asp45-Pro-Arg-Pro-Gln-Ser50-His-Asn-Asp-Gly-Asp55-Phe-Glu-Glu-Ile-Pro60-Glu-Glu-Tyr-Leu-Gln65 (SEQ ID NO:20) and binds to thrombin via both the anion-binding exosite-I and the catalytic active site. The addition of active thrombin to the peptide FD22 (dissolved at a concentration of ˜0.9 mM in 50 mM sodium phosphate buffer, 10% D2O, 0.2 mM EDTA, at pH 5.5), caused slow and specific proteolytic cleavage at the Arg47-Pro48 peptide bond (taking >60 hours for the cleavage to complete). Upon completion of the cleavage, the sample contains a mixture of two peptides, Phe-Asp45-Pro-Arg (FD22-N) (SEQ ID NO:17) and Pro-Gln-Ser50-His-Asn-Asp-Gly-Asp55-Phe-Glu-Glu-Ile-Pro60-Glu-Glu-Tyr-Leu-Gln65 (FD22-C) (SEQ ID NO:18) that should bind separately to the active site and the anion-binding exosite I of thrombin.

Where [6] appears, read: "linear" three-site exchange model, Phe56, Glu57, Ile59 simultaneously.
The mark [7] stands for this setting: general ("full") three-site exchange, Phe56, Glu57, Ile59 simultaneously.
Setting [8] is: residue Glu57, "linear" three-site exchange model, exchange between bound states.

Data on 3 substances can be found in US20050287527A1, “Quantitative ranking of transient ligand binding to target biomolecules” (National Research Council of Canada, priority 2002, published 2005).

Usually koff stands for a measure of how fast the partners let go of each other. Take “Pro-Gln-Ser50-His-Asn-Asp-Gly-Asp55-Phe-Glu-Glu-Ile-Pro60-Glu-Glu-Tyr-Leu-Gln65 (PQSHNDGDFEEIPEEYLQ; Anti-thrombin peptide) [FD22-C]”: the off-rate constant (koff) with human α-thrombin (residue Leu64 (FD22-C fragment), simultaneous fit at three α-thrombin concentrations) is roughly 400 s⁻¹; in the test with human α-thrombin (residue Phe56 (FD22-C fragment), highest α-thrombin concentration only), roughly 400 s⁻¹; with human α-thrombin (residue Tyr63 (FD22-C fragment), simultaneous fit at three α-thrombin concentrations), roughly 100 s⁻¹.

The term Kd denotes the free concentration of one partner at which half of the binding sites on the other are occupied at equilibrium, for simple one-to-one binding. Turning to “N-acetyl-*Asp-*Phe-*Glu-*Glu-*Ile-Pro-Glu-Glu-Tyr-Leu-Gln [N-acetyl-Hir(55-65), anti-thrombin peptide]”, in the test with human prothrombin [1] (setting [6]), the k1 was 560 ± 510 s⁻¹ and the “kex=k1+k2” value stood at 700±500 s^1. Moreover, in the test with human prothrombin [1] (setting [7]), the k1 amounted to 66 ± 57 s⁻¹, the k2 worked out at 110 ± 130 s⁻¹ and the “kex=k1+k2” value was 180 ± 150 s⁻¹. In the test with human prothrombin [1] (setting [8]), this substance came in with a k1 of 50 ± 30 s⁻¹ and a k2 of 150 ± 70 s⁻¹. Further, the equilibrium dissociation constant (Kd) with human prothrombin [2] was 100 to 300 µM. Further, in the test with thrombin [3], the “affinity for human thrombin compared with the same site on human prothrombin” value is “higher affinity”.

What is called IC50 is the concentration at which inhibition is half-maximal. Lower therefore signals higher potency. “Phe-Asp45-Pro-Arg-Pro-Gln-Ser50-His-Asn-Asp-Gly-Asp55-Phe-Glu-Glu-Ile-Pro60-Glu-Glu-Tyr-Leu-Gln65 (FDPRPQSHNDGDFEEIPEEYLQ; Anti-thrombin peptide) [FD22]” came in with a concentration for half-maximal inhibition (IC50) with thrombin [4] of roughly 0.02 µM. Besides, the “time for the cleavage at the Arg47-Pro48 peptide bond to complete” value in the test with thrombin [5] was greater than 60 h.
